Reference: patent publication US20260176254A1, “INHIBITORS OF PROSTATE SPECIFIC MEMBRANE ANTIGEN AND USE THEREOF” (SHANGHAI SINOTAU BIOTECH. CO., LTD, priority 2023, published 2026)

Assay: Tissue biodistribution in 22Rv1 tumor mouse model
Parameters: species or system mice
Settings: male, nude, in vivo, iv, total radioactivity
Description: LnCAP and 22RV1 CDX xenograft tumor models were generated by inoculating 5×10^6 cells/site subcutaneously in male SCID or nude mice (Vital River), respectively. Animals were housed according to IACUC guidance and had accessed to food and water ad libitium. Animals were used for biodistribution study when the tumor dimensions reached around 0.2-0.3 cm^3. […] At each tome point, animals were sacrificed and tissues were collected, weighted, and subjected to radioactivity measurements using gamma counter. Radioactivity in the tissues was presented in % ID/g (percent of injected dose per gram).

[1] = Tissue biodistribution: Salivary Gland

Compound: O=C(O)CCC[C@H](NC(=O)N[C@@H](CCCCNC(=O)[C@H](Cc1c2ccccc2cc2ccccc12)Nc1c(NC23CCC(c4nnc(CN5CCN(CC(=O)O)CCN(CC(=O)O)CCN(CC(=O)O)CC5)o4)(CC2)CC3)c(=O)c1=O)C(=O)O)C(=O)O [[^177Lu]Lu-E7, metal not drawn]
- tissue uptake dose at 2 h: 5.17 ± 0.12 %ID
- tissue uptake dose at 6 h: 1.71 ± 0.03 %ID
- tissue uptake dose at 24 h: 1.36 ± 0.04 %ID
- tissue uptake dose at 72 h: 1.29 ± 0.06 %ID
- tissue uptake dose at 168 h: 0.23 ± 0.02 %ID
- tissue uptake at 2 h (Tissue biodistribution: Blood): 0.23 ± 0.05 %ID/g
- tissue uptake at 6 h (Tissue biodistribution: Blood): 0.04 %ID/g
- tissue uptake at 24 h (Tissue biodistribution: Blood): 0.02 %ID/g
- tissue uptake at 72 h (Tissue biodistribution: Blood): 0.02 %ID/g
- tissue uptake at 168 h (Tissue biodistribution: Blood): 0.02 ± 0.01 %ID/g
- tissue uptake at 2 h (Tissue biodistribution: Bone): 0.3 ± 0.02 %ID/g
- tissue uptake at 6 h (Tissue biodistribution: Bone): 0.28 ± 0.05 %ID/g
- tissue uptake at 24 h (Tissue biodistribution: Bone): 0.26 ± 0.03 %ID/g
- tissue uptake at 72 h (Tissue biodistribution: Bone): 0.26 ± 0.06 %ID/g
- tissue uptake at 168 h (Tissue biodistribution: Bone): 0.29 ± 0.1 %ID/g
- tissue uptake at 2 h (Tissue biodistribution: Heart): 0.15 ± 0.02 %ID/g
- tissue uptake at 6 h (Tissue biodistribution: Heart): 0.06 ± 0.01 %ID/g
- tissue uptake at 24 h (Tissue biodistribution: Heart): 0.05 %ID/g
- tissue uptake at 72 h (Tissue biodistribution: Heart): 0.05 ± 0.01 %ID/g
- tissue uptake at 168 h (Tissue biodistribution: Heart): 0.07 ± 0.01 %ID/g
- tissue uptake at 2 h (Tissue biodistribution: Kidney): 15.2 ± 5.3 %ID/g
- tissue uptake at 6 h (Tissue biodistribution: Kidney): 8.27 ± 2.15 %ID/g
- tissue uptake at 24 h (Tissue biodistribution: Kidney): 6.73 ± 0.66 %ID/g
- tissue uptake at 72 h (Tissue biodistribution: Kidney): 2.88 ± 1.02 %ID/g
- tissue uptake at 168 h (Tissue biodistribution: Kidney): 0.95 ± 0.16 %ID/g
- tissue uptake at 2 h (Tissue biodistribution: Liver): 0.18 ± 0.02 %ID/g
- tissue uptake at 6 h (Tissue biodistribution: Liver): 0.11 ± 0.01 %ID/g
- tissue uptake at 24 h (Tissue biodistribution: Liver): 0.11 ± 0.01 %ID/g
- tissue uptake at 72 h (Tissue biodistribution: Liver): 0.12 ± 0.02 %ID/g
- tissue uptake at 168 h (Tissue biodistribution: Liver): 0.11 ± 0.02 %ID/g
- tissue uptake at 2 h (Tissue biodistribution: Lung): 0.41 ± 0.08 %ID/g
- tissue uptake at 6 h (Tissue biodistribution: Lung): 0.12 ± 0.02 %ID/g
- tissue uptake at 24 h (Tissue biodistribution: Lung): 0.1 %ID/g
- tissue uptake at 72 h (Tissue biodistribution: Lung): 0.07 ± 0.01 %ID/g
- tissue uptake at 168 h (Tissue biodistribution: Lung): 0.06 ± 0.01 %ID/g
- tissue uptake at 2 h (Tissue biodistribution: Muscle): 0.1 ± 0.02 %ID/g
- tissue uptake at 6 h (Tissue biodistribution: Muscle): 0.04 ± 0.02 %ID/g
- tissue uptake at 24 h (Tissue biodistribution: Muscle): 0.02 %ID/g
- tissue uptake at 72 h (Tissue biodistribution: Muscle): 0.02 %ID/g
- tissue uptake at 168 h (Tissue biodistribution: Muscle): 0.02 %ID/g
- tissue uptake at 2 h [1]: 0.16 ± 0.01 %ID/g
- tissue uptake at 6 h [1]: 0.07 ± 0.01 %ID/g
- tissue uptake at 24 h [1]: 0.08 %ID/g
- tissue uptake at 72 h [1]: 0.06 ± 0.01 %ID/g
- tissue uptake at 168 h [1]: 0.06 ± 0.02 %ID/g
- tissue uptake at 2 h (Tissue biodistribution: Spleen): 0.29 ± 0.03 %ID/g
- tissue uptake at 6 h (Tissue biodistribution: Spleen): 0.12 ± 0.03 %ID/g
- tissue uptake at 24 h (Tissue biodistribution: Spleen): 0.13 %ID/g
- tissue uptake at 72 h (Tissue biodistribution: Spleen): 0.12 ± 0.01 %ID/g
- tissue uptake at 168 h (Tissue biodistribution: Spleen): 0.15 ± 0.02 %ID/g
- tissue uptake at 2 h (Tissue biodistribution: Tumor): 15.6 ± 4.67 %ID/g
- tissue uptake at 6 h (Tissue biodistribution: Tumor): 15.6 ± 2.01 %ID/g
- tissue uptake at 24 h (Tissue biodistribution: Tumor): 17.9 ± 0.87 %ID/g
- tissue uptake at 72 h (Tissue biodistribution: Tumor): 12.1 ± 1.94 %ID/g
- tissue uptake at 168 h (Tissue biodistribution: Tumor): 4.04 ± 0.66 %ID/g
- tissue to tissue ratio at 2 h (Tumor/Blood): 70.2 ± 30
- tissue to tissue ratio at 6 h (Tumor/Blood): 425 ± 28
- tissue to tissue ratio at 24 h (Tumor/Blood): 848 ± 107
- tissue to tissue ratio at 72 h (Tumor/Blood): 737 ± 174
- tissue to tissue ratio at 168 h (Tumor/Blood): 345 ± 220
- tissue to tissue ratio at 2 h (Tumor/Bone): 52.9 ± 18.6
- tissue to tissue ratio at 6 h (Tumor/Bone): 57.4 ± 17.9
- tissue to tissue ratio at 24 h (Tumor/Bone): 70 ± 5.18
- tissue to tissue ratio at 72 h (Tumor/Bone): 47.8 ± 16.4
- tissue to tissue ratio at 168 h (Tumor/Bone): 15.6 ± 6.16
- tissue to tissue ratio at 2 h (Tumor/Kidney): 1.05 ± 0.32
- tissue to tissue ratio at 6 h (Tumor/Kidney): 1.99 ± 0.69
- tissue to tissue ratio at 24 h (Tumor/Kidney): 2.67 ± 0.15
- tissue to tissue ratio at 72 h (Tumor/Kidney): 4.48 ± 1.26
- tissue to tissue ratio at 168 h (Tumor/Kidney): 4.23 ± 0.07
